Measurements from doi:10.1101/2024.12.16.628271.

Tests used:
[1] = target: Corynebacterium glutamicum PafA (proteasome accessory factor A; Pup ligase) (Corynebacterium glutamicum) (UniProt Q8NQE1); assay: SEC
[2] = target: Corynebacterium glutamicum PafA (proteasome accessory factor A; Pup ligase) (Corynebacterium glutamicum) (UniProt Q8NQE1); assay: SEC-MALS
[3] = target: Corynebacterium glutamicum PafA (proteasome accessory factor A; Pup ligase) (Corynebacterium glutamicum) (UniProt Q8NQE1); assay: HDX-MS

Corynebacterium glutamicum PafA (proteasome accessory factor A; Pup ligase) (from UniProt Q8NQE1 1-482) (enzyme)
Kd [1]: > 1100 µM | koff [1]: 4.72e-05 s⁻¹ | stoichiometry N [2]: 2 | average k open of PafA dimer dissociation (HDX-MS, EX1) [3]: 0.06 h⁻¹
